Reference: US20210002356A1 (ZHUHAI TRINOMAB BIOTECHNOLOGY, published 2021)

Biological target: tetanus toxin (Clostridium tetani, UniProt P04958 2-1315)
Sequence (P04958 2-457 limits assumed, chain 1 of 2): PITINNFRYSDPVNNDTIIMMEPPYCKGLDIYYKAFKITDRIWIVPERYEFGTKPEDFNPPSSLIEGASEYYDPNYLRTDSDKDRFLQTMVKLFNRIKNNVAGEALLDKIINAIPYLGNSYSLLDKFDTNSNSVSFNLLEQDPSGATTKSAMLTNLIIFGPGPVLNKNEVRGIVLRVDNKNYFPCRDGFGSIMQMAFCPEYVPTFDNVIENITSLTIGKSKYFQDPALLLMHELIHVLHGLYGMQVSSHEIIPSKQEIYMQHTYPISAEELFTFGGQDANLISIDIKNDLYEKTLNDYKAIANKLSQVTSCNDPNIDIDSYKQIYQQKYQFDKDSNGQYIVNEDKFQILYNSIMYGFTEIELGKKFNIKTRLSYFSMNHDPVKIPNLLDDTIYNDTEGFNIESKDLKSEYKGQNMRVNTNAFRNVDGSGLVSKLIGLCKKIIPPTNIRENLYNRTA
Sequence (P04958 458-1315 limits assumed, chain 2 of 2): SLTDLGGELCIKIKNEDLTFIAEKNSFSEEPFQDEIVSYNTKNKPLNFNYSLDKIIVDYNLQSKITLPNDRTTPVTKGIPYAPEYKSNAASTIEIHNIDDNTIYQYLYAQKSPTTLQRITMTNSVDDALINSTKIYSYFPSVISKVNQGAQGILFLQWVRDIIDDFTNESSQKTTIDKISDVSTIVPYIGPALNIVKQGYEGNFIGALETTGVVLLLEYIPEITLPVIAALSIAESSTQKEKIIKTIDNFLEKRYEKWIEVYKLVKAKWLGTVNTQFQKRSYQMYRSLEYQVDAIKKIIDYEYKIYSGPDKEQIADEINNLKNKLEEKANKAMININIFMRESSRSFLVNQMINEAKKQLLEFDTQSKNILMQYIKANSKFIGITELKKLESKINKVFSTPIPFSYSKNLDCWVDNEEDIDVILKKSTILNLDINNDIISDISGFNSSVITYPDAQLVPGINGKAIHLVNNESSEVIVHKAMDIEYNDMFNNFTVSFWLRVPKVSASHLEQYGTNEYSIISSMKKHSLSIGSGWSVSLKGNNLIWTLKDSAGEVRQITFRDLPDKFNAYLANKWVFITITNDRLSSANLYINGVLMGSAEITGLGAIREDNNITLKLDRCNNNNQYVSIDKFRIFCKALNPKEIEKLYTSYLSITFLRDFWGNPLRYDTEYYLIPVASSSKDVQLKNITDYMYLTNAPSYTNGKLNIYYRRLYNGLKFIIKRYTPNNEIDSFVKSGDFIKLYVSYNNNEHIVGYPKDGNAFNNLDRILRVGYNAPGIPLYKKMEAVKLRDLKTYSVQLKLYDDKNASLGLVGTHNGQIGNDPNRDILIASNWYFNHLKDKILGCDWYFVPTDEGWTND

| Binder | Kd [nM] | koff [s⁻¹] | kon [M⁻¹ s⁻¹] |
| --- | --- | --- | --- |
| TRN0012 antibody (antibody, V domains shown) VH: EVQLVQSGAEVKKPGESLRISCQGSGYTFTNYWIGWVRQMPGKGLEWMGIVYPGDSDTRYSPSFQGQITISADKSISTAYLQWNNLKASDTGMYYCATQQSNPYDSGSYWYFDSWGQGTLVTVSS VL: DIVMTQSPPSLSASIGDRVTITCRASQGIRNFLAWYQQKPGKVPKLLIYAASTLQSGVPSRFSGSGSGTDFTLTISSLQPEDVATYYCQKYFSAPPDFGQGTRLEIK | 4.07 | 0.000328 | 80600 |
| TRN0010 antibody (antibody, V domains shown) VH: QVQLQESGPGLVKPSETLSLRCTVSGGSISSYYWSWFRQPPGKGLEWIGYVHYSGSTNYNPSLKSRFTLSVDTSKSQFSLRLRSVTAADTAIYYCARDKYQTDVSDIWGQGTVVTVSS VL: DIQMTQSPGTLSLSPGERATLSCRASQSITSSFLAWYQQKPGQAPRLLIYGASSRATGIPDRFSGSGSGTDFILTISRLEPEDFAVYYCQQYDTSRTFGQGTTVEIK | 3.68 | 0.000153 | 41500 |
